# Test results reported in the RNAGym collection of RNA variant scans (doi:10.7554/elife.80360).
# B1: HDV Ribozyme (parent)
# chain: GGCCGGCAUGGUCCCAGCCUCCUCGCUGGCGCCGGCUGGGCAACAUUCCGAGGGGACCGUCCCCUCGGUAAUGGCGAAUGGGACCCA
# B2: Hairpin Ribozyme (parent)
# chain: GUCCUCUUUCACGUGCGCGUGAAAGAGAGAAGUGAACCAGAGAAACACACGUUGUGGUAUAUUACCUGGUA
# Variants of: B1
# Test: self-cleavage, relative activity (ratio to wild type); higher = more cleavage; co-transcriptional
row,Variant,self-cleavage
1,G39C G40C,0.215
2,G2U C44U,0
3,C14A A77U,0.237
4,C3G G38A,0.0386
5,G6A C7U,0.283
6,U9G A71G,0.831
7,C4A G35C,0.086
8,U47C G68A,0.867
9,C3G U72G,0.345
10,G17A C36G,0.0475
11,U23A U60G,0.923
12,U12A U60G,0
13,C13A G39U,0.0615
14,G29C G39U,0.0992
15,A8G C85A,0.68
16,A71U C85A,1.08
17,C3U C85A,0.646
18,U20C A70U,0.0594
19,C19G U46C,0.13
20,C57U U69A,1.15
21,C19G G35A,0.0297
22,G28C G54U,0.0248
23,C21G U37C,0.0615
24,A51C A87C,0.937

row,Variant,self-cleavage
1,G34U G76C,0.0821
2,G2U G10U,0.038
3,C15U A71U,0.598
4,C21A G74U,0.0712
5,G76C A83G,0.554
6,G17A C21U,0
7,A42G U79C,0.0386
8,G5U G38U,0.453
9,G6C U12A,0
10,C14G G73A,0.222
11,C13U C64U,0.554
12,C3U C15A,0.481
13,C18G C49A,0.0791
14,U23A C62U,0.966
15,U20G C63G,0.104
16,G1U C58G,0.318
17,C3U U20G,0.125
18,U47C U79C,0.297
19,C19U C63A,0.199
20,C4A G5U,0.122
21,C3U C66U,0.753
22,G39A A42G,0.0292
23,U27A A45C,0.256
24,C63G G76U,0.978

row,Variant,self-cleavage
1,G10A U72C,0.175
2,U65C U72C,0.609
3,G54C A87C,1.02
4,U20G G35A,0.107
5,C21A C84G,0.0314
6,G80C C85G,0.205
7,G54A U72C,0.61
8,C13G C85A,0
9,A8G C32U,0.609
10,A8G G81C,0.115
11,G5C G31C,0.0519
12,G35U U79A,0.166
13,G31A G76C,0.469
14,G54U A56U,0.953
15,A8G U37G,0
16,U27G C33G,0.104
17,G34U G40U,0.0882
18,C66G G82C,0.0959
19,C49U A83G,0.883
20,C30G C66G,0.0326
21,C49G C84G,0.297
22,C18A G35A,0.199
23,C30G G38U,0.114
24,U79C G82C,0.222

row,Variant,self-cleavage
1,G1A U23G,0
2,G59C A78U,0.155
3,C24A G54C,0.741
4,C7U C32U,0.394
5,C4G C30G,0
6,U27G G29C,0.733
7,A77C C84A,0.128
8,C30A U47C,0.314
9,U46A U60C,0.752
10,U9C U79C,0.499
11,C33G G50C,0.246
12,C4U C58U,1.15
13,C3A G39U,0.0777
14,G17C G82C,0.133
15,U23C G35U,0.354
16,U46C C49A,0.54
17,G25U U27A,0.135
18,U47A C49U,0.972
19,G55A U60C,0.9
20,A16C A71U,0.623
21,A43U A45C,0.877
22,A56C C64G,0.831
23,C7G C57A,0.434
24,A8C U20A,0.0615

row,Variant,self-cleavage
1,C15G G73U,0.147
2,G52U U60A,1.05
3,G25U U69G,0.244
4,C14U G74U,0.733
5,C58U C75G,0.116
6,C58U G80C,0.203
7,C75U C85G,0.122
8,G81C,0.268
9,G74U C84U,0.213
10,G28U A70C,0.131
11,G74C A77U,0.104
12,G73C C86G,0.415
13,C33U A83U,0.415
14,G11A C15U,0.479
15,G31A C48U,0.393
16,C3A G31A,0.0507
17,A43U C57G,0.674
18,A70G C86U,1.23
19,C3A G53A,0.519
20,C41A A77U,0.332
21,C41U G68C,0.636
22,G74U A78C,0.201
23,A45G G76U,1.12
24,G1U C49A,0.502

row,Variant,self-cleavage
1,G39C U65G,0.262
2,G55U G67C,1.06
3,G40A U69C,0.876
4,G54C U60G,0.895
5,G34U G52A,0.208
6,A16C G31A,0.297
7,C36U C63U,0.904
8,A16C G59A,0.649
9,U27A A83U,0.88
10,C33U G68C,0.789
11,C48A A77C,0.237
12,C66G G68U,0.812
13,A16G C44A,0.748
14,U12C A56C,0.453
15,C36G C62U,0.246
16,G10A U72G,0.378
17,G53C A71G,1.07
18,C44G G50A,0.657
19,C4U G39A,0.136
20,U20C C66A,0.135
21,U47G G59U,1.12
22,G28C G54C,0.0519
23,C4U G11U,0.219
24,G17U C32A,0.136

row,Variant,self-cleavage
1,G17U A70U,0.574
2,C18U G82A,0.194
3,G68C G81U,0.123
4,C3U C75U,0.197
5,U47C A83G,0.612
6,G17A C75U,0.138
7,A51U U79C,0.49
8,C19G G68A,0.021
9,C24A G80U,0.198
10,G6U G11A,0.0437
11,U23G A42C,0
12,C49A G81C,0.189
13,C15G C57U,0.554
14,C32A G74U,0.117
15,U46G C49U,0.8
16,G17C A83G,0.131
17,G55U A78C,0.18
18,G39U U65C,0.752
19,G59U U60G,0.88
20,U27A G50C,0.656
21,U9C G31U,0.399
22,C15A C62G,0.499
23,G50C A56U,0.935
24,A51G A87G,1

row,Variant,self-cleavage
1,G76A G81U,0.437
2,A43C A77C,0.0923
3,U46G A51U,0.45
4,G35U U65A,0.35
5,C48A G59A,1.22
6,C15U G50A,1.08
7,G50U A83U,0.683
8,G39A C49G,0.366
9,C62A U65A,0.332
10,G25A G52C,0.174
11,G59A U72C,0.607
12,C62A G81U,0.266
13,G59A A87U,0.974
14,C62U A87G,1.05
15,C3G A8C,0.293
16,A16U A42G,0.166
17,U12A C22G,0.0405
18,C14U C19A,0.0545
19,C41A G74C,0.366
20,C26A A56U,1.12
21,A8C G25A,0.172
22,C22A G38U,0.554
23,C32U G55A,0.967
24,U9G G52C,0.95

row,Variant,self-cleavage
1,C7U G10A,0.425
2,C18U C22U,0.121
3,G34A A70U,0.132
4,A8C C63A,0.852
5,A43U C62A,0.499
6,A77C C86U,0.519
7,C13A C19G,0.102
8,G38U G54C,0.4
9,C21A G50U,0.0332
10,U9G G34U,0.237
11,U47G C62A,1.02
12,G35U C49U,0.554
13,C58A U60A,1.09
14,G6U G53A,0.821
15,C18G G76C,0.147
16,G39U U69C,0.769
17,C64U C75G,0.106
18,U37G G81U,0.0489
19,U12C G74U,0.0692
20,C36U U69G,0.519
21,C32G U79A,0.19
22,C4U C58A,0.852
23,G28A U72C,0.101
24,C33G G54C,0.143

row,Variant,self-cleavage
1,C75U G81U,0.193
2,C33A G68U,0.102
3,G59U C66U,0.875
4,U27A C75A,0.147
5,C18A U46A,0.0923
6,G5A G11C,0.214
7,C4U C14G,0.369
8,A8G C22U,0.361
9,C15A C30U,0.104
10,U37A C48A,0.208
11,G38C A87C,0.26
12,G53A C57G,0.992
13,C22G U72C,0
14,A8U A43U,0.125
15,C57G G80U,0.25
16,G29U C30G,0.0923
17,C3A C41A,0.25
18,U60C C64A,1.13
19,G11A G31U,0.0475
20,C15A A43G,0.323
21,C4A U37C,0.415
22,G55U A83C,0.554
23,U23C G73A,0.525
24,A78G C86G,0.806

row,Variant,self-cleavage
1,G31U G67U,0.297
2,G1C C44G,0.0692
3,A71C A87C,0.755
4,C14G C36U,0.375
5,C58G A70C,0.712
6,A56G G67A,1.09
7,C41U C61A,1.12
8,C13U A42U,0.125
9,C64U G67C,0.906
10,C18U C85G,0.975
11,C63A C86U,0.784
12,C3U C75G,0.104
13,G39A U47C,0.208
14,C15U C26U,1.2
15,U9C C36A,0.178
16,C24U A42C,0.125
17,C33G U72A,0
18,C7G C86A,0.426
19,C14G A51G,0.475
20,G31U A70G,0.48
21,G55A A71U,0.652
22,G80U C84U,0.164
23,C13A U69G,0.314
24,A16C G55A,0.554

row,Variant,self-cleavage
1,U37C A43G,0.332
2,C57A C84A,0.789
3,C41G A42G,0.332
4,C18A G38C,0.145
5,C44A A70U,0.571
6,G68U G82C,0.215
7,C44A U46A,0.677
8,C15G C66U,0.573
9,C30A C58U,0.318
10,C4U U46G,0.277
11,C49G A70G,0.733
12,C58A G67U,0.946
13,G35A A71G,0.464
14,G38U G55U,0.21
15,C22A G67C,0.337
16,A70G C75G,0.219
17,G29C A51C,0.231
18,G81C A83G,0.131
19,C3A U79G,0.175
20,G25C G29C,0.0489
21,C19A C30A,0.0357
22,G11A C22A,0.0443
23,A51U U69A,0.95
24,C33U C62A,0.583

row,Variant,self-cleavage
1,C21U G28C,0.0449
2,U46A G52U,0.596
3,G28C C62G,0.0536
4,G54C G76A,1.1
5,G38A A56U,0.218
6,C32A A56U,0.369
7,G17A G29U,0.0767
8,U12G G74A,0.18
9,G29U G68A,0.0886
10,G55U C61G,1.11
11,G59C U65A,1.17
12,A45C A83U,0.356
13,U37G G76C,0.142
14,C36U G54A,0.494
15,C58G G76C,0.914
16,G25U G68A,0.0923
17,U9C A70G,1.25
18,G1C G81C,0.119
19,G11C G52C,0.266
20,G2U G35U,0.0318
21,C14A C84U,0.262
22,C32G C41A,0.0354
23,G38A A71C,0.032
24,C49A C62A,0.81

row,Variant,self-cleavage
1,U27A C48U,0.95
2,G31U G53C,0.563
3,G50C U72C,0.494
4,C13U C30U,0.261
5,U12A C75U,0.0361
6,C30U G80A,0.227
7,G2A A78G,0.0504
8,G10U A78U,0.0554
9,C4A G73C,0.0426
10,U46C C57A,1.22
11,A45C C58U,0.831
12,A77C A87G,0.208
13,C14A G80C,0.104
14,U9G G68A,0.831
15,U20A C33A,0
16,C41G C63A,0.791
17,C64A G76C,0.95
18,G6A A87G,0.654
19,C24A A70G,0.804

# Variants of: B2
# Test: as above
row,Variant,self-cleavage
1,U5C U7G,0.365
2,A30C U58A,0.134
3,C37A G51U,0.563
